Assays:
[1] = target: T1, Fas (CD95/APO-1) on Jurkat cells (human, UniProt P25445 26-335); test: cell-based or functional assay
T1 sequence (looked up): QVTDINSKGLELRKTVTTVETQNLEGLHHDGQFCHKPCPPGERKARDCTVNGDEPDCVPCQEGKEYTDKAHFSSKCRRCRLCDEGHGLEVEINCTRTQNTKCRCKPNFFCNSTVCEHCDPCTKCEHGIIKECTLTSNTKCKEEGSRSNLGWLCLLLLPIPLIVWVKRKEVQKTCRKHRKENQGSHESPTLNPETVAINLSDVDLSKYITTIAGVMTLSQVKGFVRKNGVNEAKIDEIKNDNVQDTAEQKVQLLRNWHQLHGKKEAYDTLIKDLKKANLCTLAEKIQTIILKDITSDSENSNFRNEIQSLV

CD28 on human cells = target: T2, CD28 on human cells (human, UniProt P10747 19-220); test: inferred from inhibition of cell death by anti-CD28 blocking antibody on JKCD28high cells
T2 construct: whole, on cells; also called CD28 receptor
Procedure: FIG. 14: Effect of the pFasL and CD80-pFasL chimeras on the JKCD28low, JKCD28high and JKCD28delta cell lines. Panel A: membrane expression of Fas and CD28 on the three cell lines. The cells were stained with the indicated antibodies, or with an isotype-matched negative control antibody (shaded histograms) then analysed by flow cytometry. Panel B: the apoptotic activity of the pFasL and CD80-pFasL chimeras was tested against the three cell lines (JKCD28 low: empty triangles; JKCD28high: filled triangles; JKCD28delta: squares) at a range of concentrations, measured in the FasL ELISA. Cell death was estimated by the MTT viability assay. Mean and sd from three distinct experiments. Panel C: the pFasL and CD80-pFasL chimeras were used at a non-saturating concentration that triggers a suboptimal cell death. The JKCD28low and JKCD28high cell lines were pre-incubated without (no antibody) or with an isotype-matched control antibody at 10 μg/mL or with the CD28.2 clone of anti-CD28 blocking antibody at 10, 3 or 1 μg/mL. Cell death was measured using the MTT cell viability assay. Mean and sd from three distinct experiments.
To analyse this possibility, the inventors conducted experiments where CD28 was blocked using a neutralising antibody. […]

B1: CD80-pFasL (other)
chain: VIHVTKEVKEVATLSCGHNVSVEELAQTRIYWQKEKKMVLTMMSGDMNIWPEYKNRTIFDITNNLSIVILALRPSDEGTYECVVLKYEKDAFKREHLAEVTLSVKADFPTPSISDFEIPTSNIRRIICSTSGGFPEPHLSWLENGEELNAINTTVSQDPETELYAVSSKLDFNMTTNHSFMCLIKYGHLRVNQTFNWNTTKQEHFPSSIPDSQTKVFPQDKVILVGSDITFCCVSQEKVLSALIGHTNCPLIHLDGENVAIKIRNISVSASSGTNVVFTTEDNIFGTVISRALQKELAELRESTSQMHTASSLEKQIGHPSPPPEKKELRKVAHLTGKSNSRSMPLEWEDTYGIVLLSGVKYKKGGLVINETGLYFVYSKVYFRGQSCNNLPLSHKVYMRNSKYPQDLVMMEGKMMSYCTTGQMWARSSYLGAVFNLTSADHLYVNVSELSLVNFEESQTFFGLYKL
notes: Polymeric, produced in HEK 293T cells; also called CD80IgFasL; CD80-IgFasL polymeric chimera
C50 against pFasL, JKCD28delta cell line [1]: 10 fold increase against pFasL
C50 against pFasL, JKCD28high cell line [1]: 2.5 fold decrease against pFasL
C50 against pFasL, JKCD28low cell line [1]: 17 fold decrease against pFasL
binding result (CD28 on human cells): binds

Reference: patent US20150044237A1 (CENTRE NATIONAL DE LA RECHERCHE SCIENTIFIQUE, published 2015)
